Reference: patent publication US20200055923A1 (HEXAL, published 2020)

Biological target: T1, VEGF165 (human VEGF-A), immobilized (human, UniProt P15692-4 27-191)
T1 construct: Immobilized on the Biacore chip; also called vascular endothelial growth factor A
Test: SPR (Biacore), VEGF165 immobilized
Method: To study the binding of bevacizumab to VEGF, a surface plasmon resonance (SPR) assay using Biacore™ was carried out. The interaction between bevacizumab and its target, immobilized VEGF₁₆₅, is monitored in real time. Analysis of the association and dissociation of the binding partners allows the retrieval of the kinetic parameters kₐ (association rate constant) and kd (dissociation rate constant), which quantifies the interaction between bevacizumab or its variants and VEGF₁₆₅. Furthermore, the equilibrium dissociation constant KD is calculated using the formula KD=kd/kₐ.

T1 sequence (P15692 other isoform, or with tags, fused parts or gaps limits assumed): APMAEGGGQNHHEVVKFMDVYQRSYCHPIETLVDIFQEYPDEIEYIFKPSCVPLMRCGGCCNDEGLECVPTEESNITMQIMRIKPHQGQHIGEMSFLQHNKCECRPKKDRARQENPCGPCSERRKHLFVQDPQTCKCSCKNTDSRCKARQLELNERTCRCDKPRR

- Kd: 0.235 nM
B1: bevacizumab CEX peak 1, fraction enriched in CDR-H1 glycosylated bevacizumab (antibody, human IgG1, kappa, V domains shown)
VH: EVQLVESGGGLVQPGGSLRLSCAASGYTFTNYGMNWVRQAPGKGLEWVGWINTYTGEPTYAADFKRRFTFSLDTSKSTAYLQMNSLRAEDTAVYYCAKYPHYYGSSHWYFDVWGQGTLVTVSS
VL: DIQMTQSPSSLSASVGDRVTITCSASQDISNYLNWYQQKPGKAPKVLIYFTSSLHSGVPSRFSGSGSGTDFTLTISSLQPEDFATYYCQQYSTVPWTFGQGTKVEIKR
modifications: N-linked complex-type glycan (core-fucosylated, mono- to tetra-antennary, partly sialylated) at N31 of the heavy chain, in CDR-H1
notes: Humanized IgG1; also called enriched CDR-H1 glycosylated bevacizumab obtained from CEX; Fd-glycosylated variant
